Where a chain is given by its changes, count along the chain named.
B1: SEQ ID NO 113 (designed binder)
chain: VSDVPRDLEVVAATPTSLLISWDAPAVTVRYYRITYGERRGQYGSSQEFTVPGSKSTATISSPEGSVDYTITVYAVTGRGESPASSKPISINYSRSE
B2: SEQ ID NO 110 (designed binder)
chain: VSDVPRDLEVVAATPTSLLISWDAPAVTVRYYRITYGESSGYAERGQEFTVPGSKSTATISSPGARVDYTITVYAVTGRGESPASSKPISINYSSLG
B3: SEQ ID NO 109 (designed binder)
chain: VSDVPRDLEVVAATTTSLLISWDAPAVTVRYYRITYGESGRGAQEFTVPGSKSTATISGLGPPVDYTITVYAVTGRGESPASSKPISINYRSQH
B4: SEQ ID NO 103 (designed binder)
chain: VSDVPRDLEVVAATPTSLLISWDAPAVTVRYYRITYGESREGGQEFTVPGSKSTATISSYQSEVDYTITVYAVTGRGESPASSKPISINYARSR
B5: SEQ ID NO 105 (designed binder)
chain: B4 chain with S39G, E41R, G42Y, S59E, Y60L, Q61L, A91S, R92L, S93R, R94Y
B6: SEQ ID NO 104 (designed binder)
chain: B4 chain with S39G, R40Q, E41Q, S59A, Q61R, S62G, E63P, A91Y, R92G, R94Y
B7: SEQ ID NO 111 (designed binder)
chain: VSDVPRDLEVVAATPTSLLISWDAPAVTVRYYRITYGESEGGSSRSQEFTVPGSKSTATISRSYQPVDYTITVYAVTGRGESPASSKPISINYGSYP
B8: SEQ ID NO 90 (designed binder)
chain: VSDVPRDLEVVAATPTSLLISWDAPAVTVRYYRITYGEGERPYQEFTVPGSKSTATISYAHYSVDYTITVYAVTGRGESPASSKPISINYERRS
B9: SEQ ID NO 108 (designed binder)
chain: B8 chain with G39P, E40R, P42R, Y59P, A60G, H61G, Y62Q, E91G, R93G, S94Y
B10: SEQ ID NO 93 (designed binder)
chain: B8 chain with G39Y, E40P, P42E, Y59R, A60Y, H61G, S63H, E91S, R92G, R93Y
B11: SEQ ID NO 114 (designed binder)
chain: VSDVPRDLEVVAATPTSLLISWDAPAVTVRYYRITYGEQRYSYYGQQEFTVPGSKSTATISSGRSSVDYTITVYAVTGRGESPASSKPISINYRRSY
B12: SEQ ID NO 115 (designed binder)
chain: B11 chain with Q39R, R40P, Y41A, Y44R, G45A, Q46A, G63Y, R64S, S65Y, Y97G
B13: SEQ ID NO 98 (designed binder)
chain: VSDVPRDLEVVAATPTSLLISWDAPAVTVRYYRITYGERSSRSQEFTVPGSKSTATISHSREPVDYTITVYAVTGRGESPASSKPISINYQYRY
B14: SEQ ID NO 101 (designed binder)
chain: B13 chain with R39E, S43P, H59Q, S60A, E62A, P63R, Q91R, Y92R, R93Y, Y94R
B15: SEQ ID NO 99 (designed binder)
chain: B13 chain with R39S, S40Q, R42H, S60P, R61S, E62R, Q91P, Y92R, R93S, Y94E
B16: SEQ ID NO 106 (designed binder)
chain: B13 chain with R39S, S40G, S41Y, S43Y, H59G, S60Y, P63H, Y92E, R93S
B17: SEQ ID NO 88 (designed binder)
chain: VSDVPRDLEVVAATPTSLLISWDAPAVTVRYYRITYGESSSSRRQEFTVPGSKSTATISGEESYVDYTITVYAVTGRGESPASSKPISINYAEER
B18: SEQ ID NO 89 (designed binder)
chain: VSDVPRDLEVVAATPTSLLISWDAPAVTVRYYRITYGEGRHPSYQEFTVPGSKSTATISPSYSRVDYTITVYAVTGRGESPASSKPISINYSRER
B19: SEQ ID NO 100 (designed binder)
chain: VSDVPRDLEVVAATPTSLLISWDAPAVTVRYYRITYGEEEEHPQEFTVPGSKSTATISSPQRGVDYTITVYAVTGRGESPASSKPISINYYSYY
B20: SEQ ID NO 107 (designed binder)
chain: B19 chain with E39S, E40G, E41R, H42R, P43G, Q61S, R62L, G63E, Y91R, Y93G
B21: SEQ ID NO 102 (designed binder)
chain: B19 chain with E39Y, E40G, E41A, H42L, P43E, S59R, P60S, R62A, G63E, Y91A
B22: SEQ ID NO 112 (designed binder)
chain: VSDVPRDLEVVAATPTSLLISWDAPAVTVRYYRITYGEQYYHQGRRQEFTVPGSKSTATISRYGGSVDYTITVYAVTGRGESPASSKPISINYYAYG
B23: SEQ ID NO 116 (designed binder)
chain: VSDVPRDLEVVAATPTSLLISWDAPTVTVRYYRITYGEPQASHRPYQEFTVPGSKSTATISSRSQSVDYTITVYAVTGRGESPASSKPISINYLREL
B24: SEQ ID NO 95 (designed binder)
chain: VSDVPRDLEVVAATPTSLLISWDAPAVTVRYYRITYGEYEYARQEFTVPGSKSTATISRLYRRVDYTITVYAVTGRGESPASSKPISINYYRSA
B25: SEQ ID NO 92 (designed binder)
chain: B24 chain with Y41R, A42Y, R59S, L60Q, Y61S, R63Y, Y91G, S93P
B26: SEQ ID NO 91 (designed binder)
chain: VSDVPRDLEVVAATPTSLLISWDAPAVTVRYYRITYGEYQRSRQEFTVPGSKSTATISSYGGYVDYTITVYAVTGRGESPASSKPISINYRSLR
B27: SEQ ID NO 96 (designed binder)
chain: B26 chain with Q40H, R41Y, R43E, S59Y, G61E, G62P, Y63R, R91H, L93S
B28: SEQ ID NO 97 (designed binder)
chain: B24 chain with Y39Q, E40R, A42L, R59S, L60R, Y61S, R62A, Y91P, R92Y
B29: SEQ ID NO 87 (designed binder)
chain: VSDVPRDLEVVAATPTSLLISWDAPAVTVRYYRITYGEAYGESYQEFTVPGSKSTATISQSPEYVDYTITVYAVTGRGESPASSKPISINYASEY
B30: SEQ ID NO 94 (designed binder)
chain: VSDVPRDLEVVAATPTSLLISWDAPAVTVRYYRITYGEYEHYYQEFTVPGSKSTATISPYAGGVDYTITVYAVTGRGESPASSKPISINYSESE

These binders were tested against T1, hen egg white lysozyme (hen, UniProt P00698 19-147, biotinylated (HEL-b); sites not stated) (assay: yeast display selection).
T1 construct: also called lyzozyme; HEL-b (biotinylated)
T1 sequence (P00698 19-147 limits assumed): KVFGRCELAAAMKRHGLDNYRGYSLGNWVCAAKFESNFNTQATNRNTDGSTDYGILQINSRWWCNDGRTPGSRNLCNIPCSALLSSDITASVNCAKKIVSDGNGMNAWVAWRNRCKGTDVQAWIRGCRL

| binding result | Binder |
| --- | --- |
| binds | B1 |
| binds | B2 |
| binds | B3 |
| binds | B4 |
| binds | B5 |
| binds | B6 |
| binds | B7 |
| binds | B8 |
| binds | B9 |
| binds | B10 |
| binds | B11 |
| binds | B12 |
| binds | B13 |
| binds | B14 |
| binds | B15 |
| binds | B16 |
| binds | B17 |
| binds | B18 |
| binds | B19 |
| binds | B20 |
| binds | B21 |
| binds | B22 |
| binds | B23 |
| binds | B24 |
| binds | B25 |
| binds | B26 |
| binds | B27 |
| binds | B28 |
| binds | B29 |
| binds | B30 |

From patent US9296810 (Novartis, dated 2016)
